In US20210395773A1, “IN VIVO CONTROLLED COMBINATION THERAPY FOR TREATMENT OF CANCER” (PRECIGEN, INC., priority 2018, published 2021):
Marks after values point to notes of the source that are not given here.

Key:
[1] = Veledimex levels in blood and CSF after oral gavage (blood-brain barrier crossing); type: in vivo, C57BL/6 mice; details: PO 450 or 1,200 mg/m2/day; normal C57BL/6 and orthotopic GL-261 glioma mice; 24 hours post-veledimex
Method: To generate orthotopic GL-261 glioma mice, a group of C57BL/6 mice received 1×10^5 GL-261 glioma cells via intracranial injection ˜2 mm distal to the intersection of the coronal and sagittal suture. On day 5, the animals were randomly assigned to one of the treatment groups. GL-261, a murine glioma tumor cell line, was purchased from American Type Culture Collection (Manassas, Va.).
Veledimex was administered to normal C57BL/6 mice or orthotopic GL-261 glioma mice via oral gavage (PO) at 450 mg/m2/day or 1,200 mg/m^2/day. Terminal blood and CSF were collected for normal C57BL/6 mice or orthotopic GL-261 glioma mice after 2 days of treatment, and for orthotopic GL-261 glioma mice after 13 days of treatment.

[2] = Phase 1 Main Study: veledimex in plasma and tumor; type: in vivo, human
Method: FIGS. 21A-21D show a series of graphs depicting veledimex, IL-12 and IFN-γ concentrations upon treatment with veledimex. […] Each symbol represents plasma from a single patient. […] Veledimex was administered to each patient approximately 3 hours before the start of the craniotomy. Serum and tumor at the time of resection were then assayed for veledimex levels.
This study is investigating two intratumoral Ad-RTS-hIL-12 doses (2×10^11 vp or 1×10^12 vp) and escalating veledimex doses (10 mg to 40 mg) to determine the safe and tolerable dose based on the safety profiles observed in the presence of variable corticosteroid exposure. Group 1 received one veledimex dose before a standard-of-care resection procedure, Ad was administered by freehand intratumoral injection, then continued with oral V QD for 14 days. Subjects not scheduled for tumor resection (Group 2) received Ad-RTS-hIL-12 (2×10^11 vp or 1×10^12 vp) by stereotactic injection and then continued on oral veledimex for 14 days.

GL-261 medullary glioma = details: vehicle mOS 16 days
Description: Ad-RTS-hIL-12 (Ad) is a recombinant, adenoviral-delivered, gene therapy for expression of interleukin-12 (IL-12) under the control of an orally administered activator ligand, veledimex (V), acting in concert with a ligand-inducible gene switch (also referred to as “RTS®”).

IL-12 = experiment: Phase 1 Ad+V with nivolumab in rGBM: serum IL-12; type: in vivo, human
Method: (§1) Ad was administered by intratumoral injection (using a dose of 2×10^11 vp (2e11 vp)) along with daily veledimex (V) (at doses of 10-20 mg) QDx15 PO with nivolumab intravenous infusions (at doses of 1-3 mg/kg) at Day (−)7 (i.e., 7 days prior to administration of Ad+V), at Day 15 (after administration of Ad+V), then Q2W (i.e., once every 2-weeks).

[3] = test system: cytotoxic T cells and Tregs in peripheral blood; experiment: Phase 1 Ad+V with nivolumab in rGBM: peripheral blood flow cytometry; type: in vivo, human; details: after nivolumab alone
Method: Methods: An open label, dose escalation Phase 1 study evaluating safety and tolerability of local, inducible IL-12 expression in combination with nivolumab in adult subjects with recurrent glioblastoma (rGBM) was commenced. Ad was administered by intratumoral injection (using a dose of 2×10^11 vp (2e11 vp)) along with daily veledimex (V) (at doses of 10-20 mg) QDx15 PO with nivolumab intravenous infusions (at doses of 1-3 mg/kg) at Day (−)7 (i.e., 7 days prior to administration of Ad+V), at Day 15 (after administration of Ad+V), then Q2W (i.e., once every 2-weeks).

[4] = Phase 1 Ad+V with nivolumab in rGBM: safety (adverse events); type: in vivo, human; details: by relatedness
Method: as §1

[5] = Cohort 1: Ad + V (10 mg) Nivolumab (1 mg/kg) N = 3
[6] = Cohort 2: Ad + V (10 mg) Nivolumab (3 mg/kg) N = 3
[7] = Cohort 3: Ad + V (20 mg) Nivolumab (3 mg/kg) N = 2

CCC[C@@H](N(NC(=O)c1cccc(OC)c1CC)C(=O)c1cc(C)cc(C)c1)C(C)(C)C [veledimex, (R)—N′-(3,5-dimethylbenzoyl)-N′-(2,2-dimethylhexan-3-yl)-2-ethyl-3-methoxybenzohydrazide]
crossing of the blood-brain barrier by orally administered veledimex [1]: crosses the blood-brain barrier
plasma and tumor V peak PK levels versus dose ([2]; V 10-40 mg): dose dependent
Kp ([2]; human, tumor (relative to plasma), oral, Main Study, tumor vs plasma at resection, about 3 hours after V, read-out: V tumor penetration): ~0.4
crossing of the blood-brain-barrier ([2]; rGBM patients): crosses the blood-brain-barrier

Cn1nnc2c(C(N)=O)ncn2c1=O [temozolomide]
mOS (GL-261 medullary glioma): 25 days

Nivolumab: antibody that binds PD-1; heavy and light chains SEQ ID NO: 10 and 11
peripheral IL-12 at Day 0 (median) (IL-12; after nivolumab alone (Day -7 dose), median baseline 0.9 pg/ml): 1.0 pg/mL
impact of pre-dosing on cytokine levels prior to Ad+V (IL-12; nivolumab Day -7): did not have an impact on cytokine levels
Tregs (FoxP3) at Day 0 ([3]; baseline 1.5%): 0.8%
peripheral cytotoxic T cells CD3+CD8+ at Day 0 ([3]; median baseline 23%): 26%
Related ≥ Grade 3 AEs: ALT increased [4, 5]: 0
Related ≥ Grade 3 AEs: Brain oedema (cerebral edema) [4, 5]: 1 (33%)
Related ≥ Grade 3 AEs: Lipase increased [4, 5]: 0
Related ≥ Grade 3 AEs: Lymphocyte count Decreased [4, 5]: 0
Related ≥ Grade 3 AEs: ALT increased [4, 6]: 0
Related ≥ Grade 3 AEs: Brain oedema (cerebral edema) [4, 6]: 0
Related ≥ Grade 3 AEs: Lipase increased [4, 6]: 1 (33%)
Related ≥ Grade 3 AEs: Lymphocyte count Decreased ([4]; Cohort 2: Ad + V (10 mg) Nivolumab (3 mg/kg) N = 3, one AE related to both): 1 (33%)*
Related ≥ Grade 3 AEs: ALT increased [4, 7]: 0
Related ≥ Grade 3 AEs: Brain oedema (cerebral edema) [4, 7]: 0
Related ≥ Grade 3 AEs: Lipase increased [4, 7]: 0
Related ≥ Grade 3 AEs: Lymphocyte count Decreased [4, 7]: 0
related SAEs ([4]; Cohorts 1-3): One SAE of brain oedema (cerebral edema) was considered related to nivolumab alone
